B3: full-length PRO175 polypeptide on cells (ligand)
chain: MCLSHLENMPLSHSRTQGAQRSSWKLWLFCSIVMLLFLCSFSWLIFIFLQLETAKEPCMAKFGPLPSKWQMASSEPPCVNKVSDWKLEILQNGLYLIYGQVAPNANYNDVAPFEVRLYKNKDMIQTLTNKSKIQNVGGTYELHVGDTIDLIFNSEHQVLKNNTYWGIILLANPQFIS
notes: Human 293 cells were transiently transfected with full-length PRO175, co-transfected with CD4 for gating; also called PRO175 on transfected 293 cells; PRO175 on HUVEC
B4: CD95 immunoadhesin (Fc fusion, UniProt P25445 26-173, looked up)
chain: QVTDINSKGLELRKTVTTVETQNLEGLHHDGQFCHKPCPPGERKARDCTVNGDEPDCVPCQEGKEYTDKAHFSSKCRRCRLCDEGHGLEVEINCTRTQNTKCRCKPNFFCNSTVCEHCDPCTKCEHGIIKECTLTSNTKCKEEGSRSN
notes: extracellular domain; also called CD95-IgG; Fas-IgG; not shown: hinge and Fc portion of human IgG; made as described for TNFR1 in Ashkenazi et al. 1991 (IgG1 from)

Columns and labels:
TNFR2 immunoadhesin = target: T1, TNFR2 immunoadhesin (human, UniProt P20333 23-257, limits assumed); experiment: co-precipitation with protein A-sepharose, SDS-PAGE, autoradiography
T1 construct: extracellular domain; also called TNFR2-IgG; not shown: hinge and Fc portion of human IgG; made as described for TNFR1 in Ashkenazi et al. 1991 (IgG1 from)
T1 sequence (looked up): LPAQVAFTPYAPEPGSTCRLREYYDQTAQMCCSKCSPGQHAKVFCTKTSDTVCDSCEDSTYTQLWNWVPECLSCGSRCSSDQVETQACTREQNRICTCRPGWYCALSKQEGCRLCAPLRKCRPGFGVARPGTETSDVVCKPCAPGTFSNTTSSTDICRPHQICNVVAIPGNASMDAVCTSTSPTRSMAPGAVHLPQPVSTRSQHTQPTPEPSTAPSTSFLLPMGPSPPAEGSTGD
Description: (§1) The soluble PRO175 ECD molecule was abeled with ¹²⁵I, for testing its ability to interact with the PRO364 immunoadhesin. For comparison, immunoadhesin constructs were also made of the following TNF receptor family members: CD95, DR4, DR5, TNFR1, TNFR2, and Apo-3. CD95, DR4, DR5, TNFR1, TNFR2, and Apo-3 immunoadhesins were prepared by fusing each receptor's ECD to the hinge and Fc portion of human IgG, as described previously for TNFR1 [Ashkenazi et al., Proc. Natl. Acad. Sci., 88:10535-10539 (1.991)]. The respective TNF receptor family members are described (and relevant references cited) in the Background of the Invention section.
(§2) For the co-precipitation assay, each immunoadhesin (5 microgram) was incubated with ¹²⁵I-labeled soluble PRO175 polypeptide (I microgram) for 1 hour at 24° C., followed by protein A-sepharose for 30 minutes on ice. The reaction mixtures were spun down and washed several times in PBS, boiled in SDS-PAGE buffer containing 20 mM dithiothreitol and then resolved by SDS-PAGE and autoradiography.

DR4 immunoadhesin = target: T2, DR4 immunoadhesin (human, UniProt O00220 24-239, limits assumed); experiment: as above
T2 construct: extracellular domain; also called DR4-IgG; not shown: hinge and Fc portion of human IgG; made as described for TNFR1 in Ashkenazi et al. 1991 (IgG1 from)
T2 sequence (looked up): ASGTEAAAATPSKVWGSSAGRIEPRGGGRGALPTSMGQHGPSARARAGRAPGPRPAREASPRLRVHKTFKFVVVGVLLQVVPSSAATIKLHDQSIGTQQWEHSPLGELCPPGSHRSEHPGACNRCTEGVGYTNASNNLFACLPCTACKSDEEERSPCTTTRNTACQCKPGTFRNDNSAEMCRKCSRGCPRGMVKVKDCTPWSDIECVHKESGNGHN
Description: as §1, §2

TNFR1 immunoadhesin [1] = target: T3, TNFR1 immunoadhesin (human, UniProt P19438 30-211, limits assumed); experiment: as above
T3 construct: extracellular domain; also called TNFR1-IgG; TNFR 1-IgG; not shown: hinge and Fc portion of human IgG
T3 sequence (looked up): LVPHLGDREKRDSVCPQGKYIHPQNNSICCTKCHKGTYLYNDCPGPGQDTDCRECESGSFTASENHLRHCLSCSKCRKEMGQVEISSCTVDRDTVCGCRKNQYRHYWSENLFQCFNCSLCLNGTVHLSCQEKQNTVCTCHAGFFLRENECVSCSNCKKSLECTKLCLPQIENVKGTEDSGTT
Description: as §1, §2

DR5 immunoadhesin = target: T4, DR5 immunoadhesin (human, UniProt O14763 56-210, limits assumed); experiment: as above
T4 construct: extracellular domain; also called DR5-IgG; Apo-2; not shown: hinge and Fc portion of human IgG; made as described for TNFR1 in Ashkenazi et al. 1991 (IgG1 from)
Description: as §1, §2

CD95 immunoadhesin = target: B4; experiment: as above
Description: as §1, §2

Apo-3 immunoadhesin = target: T5, Apo-3 immunoadhesin (human, UniProt Q93038 25-199); experiment: as above
T5 construct: extracellular domain; also called Apo-3-IgG; DR3; not shown: hinge and Fc portion of human IgG; made as described for TNFR1 in Ashkenazi et al. 1991 (IgG1 from)
T5 sequence (looked up): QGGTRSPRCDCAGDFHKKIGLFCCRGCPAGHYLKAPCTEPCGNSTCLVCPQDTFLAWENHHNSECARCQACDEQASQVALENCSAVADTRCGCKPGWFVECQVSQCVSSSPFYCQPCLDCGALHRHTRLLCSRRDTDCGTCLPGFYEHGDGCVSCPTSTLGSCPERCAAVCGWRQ
Description: as §1, §2

[2] = target: B3; experiment: FACS on 293 cells transiently transfected with full-length PRO175
Description: In another assay, human 293 cells were transiently transfected with full-length PRO175 and the ability of receptor immunoadhesin constructs for PRO364, TNFR1, HVEM, and DcR1 to bind to those transfected cells was determined by FACS analysis. The 293 cells were maintained in high glucose DMEM media supplemented with 10% fetal bovine serum (FBS), 2 mM glutamine, 100 microgram/ml penicillin, and 100 microgram/ml streptomycin. The transfected cells ([…]) were incubated for 60 minutes at 4° C. in 200 microliters 2% FBS/PBS with 1 microgram of the respective receptor or ligand immunoadhesin. The cells were then washed with 2% FBS/PBS, stained with R-phycoerythrin-conjugated goat anti-human antibody (Jackson Immunoresearch, West Grove, Pa.). Next, the cells were analyzed by FACS. To test the binding of the respective immunoadhesins to the transiently transfected cells, an expression vector (pRK5-CD4; Smith et al., Science, 328:1704-1707 (1987)) for CD4 was co-transfected with PRO175 expression vector (see above). FITC-conjugated anti-CD4 (Pharmingen, San Diego, Calif.) was then used to identify and gate the transfected cell population in the FACS analysis.

TNFR1 immunoadhesin [3] = target: T3, TNFR1 immunoadhesin; experiment: FACS on HUVEC (endogenous PRO175)
Description: (§3) The PRO175 polypeptide was identified in a human umbilical vein endothelial cell (HUVEC) library, and the PRO175 polypeptide transcripts are readily detectable in HUVEC by RT-PCR (data not shown). […] HUVEC were purchased from Cell Systems (Kirkland, Wash.) and grown in a 50:50 mix of Ham=s F 12 and Low Glucose DMEM media containing 10% fetal bovine serum, 2 mM L-glutamine, 10 mM Hepes, and 10 ng/ml basic FGF. Cells were FACS sorted with PBS, PRO364-IgG, TNFR1-IgG or Fas-IgG as a primary antibody and goat anti-human F(ab=)₂ conjugated to phycoerythrin (CalTag, Burlingame, Calif.).

[4] = target: B3; experiment: FACS on HUVEC (endogenous PRO175)
Description: as §3

B1: soluble PRO175 polypeptide (PRO175 ECD, E. coli, Met-Gly-His10-enterokinase-site tagged) (ligand)
chain: MGHHHHHHHHHHSSGHIDDDDKHMETAKEPCMAKFGPLPSKWQMASSEPPCVNKVSDWKLEILQNGLYLIYGQVAPNANYNDVAPFEVRLYKNKDMIQTLTNKSKIQNVGGTYELHVGDTIDLIFNSEHQVLKNNTYWGIILLANPQFIS
modifications: labeled with 125I (residues not stated)
notes: also called soluble PRO175 ECD molecule; radioiodinated soluble PRO175 polypeptide
binding result (TNFR2 immunoadhesin): no binding | binding result (DR4 immunoadhesin): no binding | binding result (TNFR1 immunoadhesin [1]): no binding | binding result (DR5 immunoadhesin): no binding | binding result (CD95 immunoadhesin): no binding | binding result (Apo-3 immunoadhesin): no binding

B2: PRO364-IgG (soluble immunoglobulin fusion protein of the PRO364 extracellular domain) (Fc fusion)
chain: QRPTGGPGCGPGRLLLGTGTDARCCRVHTTRCCRDYPGEECCSEWDCMCVQPEFHCGDPCCTTCRHHPCPPGQGVQSQGKFSFGFQCIDCASGTFSGGHEGHCKPWTDCTQFGFLTVFPGNKTHNAVCVPGSPPAE
notes: Expressed in insect cells with Baculovirus; also called PRO364 immunoadhesin; PRO364 ECD C-terminus IgG-Fc tagged form; not shown: IgG-Fc at the C-terminus
binding result [2]: binds

B3
binding result (TNFR1 immunoadhesin [3]): no binding

B4
binding result [4]: no binding

Source: US20050202008A1 (Genentech, published 2005)
